In patent publication US20120045438A1 (Janssen / Centocor, published 2012):
Numbering of substitutions follows the chain as printed.

B1: Fab clone 2C06 (IL-13-62 library) (Fab, V domains shown)
VH: QVTLKESGPVLVKPTETLTLTCTVSGFSLSTYGMGVGWIRQPPGKALEWLAHIWWDDVKRYNPALKSRLTISKDTSKSQVVLTMTNMDPVDTATYYCARMGSDYDVWFDYWGQGTLVTVSS
VL: EIVLTQSPATLSLSPGERATLSCRASKSISKYLAWYQQKPGQAPRLLIYSGSTQQSGIPARFSGSGSGTDFTLTISSLEPEDFAVYYCQQHDYPYTFGQGTKLEIK
notes: Fab on phage pIX; del = residue deleted
B2: Fab clone 2B07 (IL-13-62 library) (Fab, V domains shown)
VH: B1 VH
VL: EIVLTQSPATLSLSPGERATLSCRASKSISKYLAWYQQKPGQAPRLLIYSGSTLQSGIPARFSGSGSGTDFTLTISSLEPEDFAVYYCQQHDWGPYTFGQGTKLEIK
notes: Fab on phage pIX
B3: Fab clone 1A05 (IL-13-62 library) (Fab, V domains shown)
VH: B1 VH
VL: B2 VL with W93Y, G94A
notes: Fab on phage pIX
B4: Fab clone 1A02 (IL-13-62 library) (Fab, V domains shown)
VH: B1 VH
VL: B2 VL with D92S, G94A
notes: Fab on phage pIX
B5: Fab clone 1A06 (IL-13-62 library) (Fab, V domains shown)
VH: B1 VH
VL: B2 VL with D92E
notes: Fab on phage pIX
B6: Fab clone without printed name, L-CDR3 Q D G del (IL-13-62 library) (Fab, V domains shown)
VH: B1 VH
VL: B1 VL with Q54L, H91Q, Y93G
notes: as for B1
B7: Fab clone 2D04 (IL-13-62 library) (Fab, V domains shown)
VH: B1 VH
VL: B1 VL with Q54L, H91Q, Y93S
notes: as for B1
B8: mAb with Lc 3B06 (Lc6 variant) and Hc2 (antibody, V domains shown)
VH: B1 VH
VL: B2 VL with D92L, W93M
notes: human IgG1
B9: mAb with Lc 5G02 (Lc6 variant) and Hc2 (antibody, V domains shown)
VH: B1 VH
VL: B2 VL with S56G, D92L, W93D, G94S
notes: human IgG1
B10: mAb with Lc 2C05 (Lc6 variant) and Hc2 (antibody, V domains shown)
VH: B1 VH
VL: B2 VL with H91Q, W93L
notes: human IgG1
B11: mAb with Lc 2H08 (Lc6 variant) and Hc2 (antibody, V domains shown)
VH: B1 VH
VL: B2 VL with D92L, W93D, G94S
notes: human IgG1
B12: mAb with Lc 1C02 (Lc6 variant) and Hc2 (antibody, V domains shown)
VH: B1 VH
VL: B2 VL with D92V
notes: human IgG1
B13: mAb with Lc 3G01 (Lc6 variant) and Hc2 (antibody, V domains shown)
VH: B1 VH
VL: B2 VL with H91P, D92L, W93D, G94V
notes: human IgG1
B14: mAb with Lc 2G01 (Lc6 variant) and Hc2 (antibody, V domains shown)
VH: B1 VH
VL: B2 VL with D92F
notes: human IgG1
B15: mAb with Lc 2A03 (Lc6 variant) and Hc2 (antibody, V domains shown)
VH: B1 VH
VL: B2 VL with D92E, W93S
notes: human IgG1
B16: mAb with Lc 2H01 (Lc6 variant) and Hc2 (antibody, V domains shown)
VH: B1 VH
VL: B2 VL with G94E
notes: human IgG1
B17: mAb with Lc 3G02 (Lc6 variant) and Hc2 (antibody, V domains shown)
VH: B1 VH
VL: B2 VL with D92L, W93N
notes: human IgG1
B18: mAb with Lc 3E05 (Lc6 variant) and Hc2 (antibody, V domains shown)
VH: B1 VH
VL: B2 VL with H91P, D92L, W93D, G94T
notes: human IgG1
B19: mAb with Lc 1F03 (Lc6 variant, Table 8) and Hc2 (antibody, V domains shown)
VH: B1 VH
VL: B2 VL with W93R, G94D
notes: human IgG1
B20: mAb with Lc 1E03 (Lc6 variant) and Hc2 (antibody, V domains shown)
VH: B1 VH
VL: B2 VL with D92L, W93L
notes: human IgG1
B21: mAb with Lc 5B03 (Lc6 variant) and Hc2 (antibody, V domains shown)
VH: B1 VH
VL: B2 VL with Q38R, D92N, W93E, G94A
notes: human IgG1
B22: mAb with Lc 3E03 (Lc6 variant) and Hc2 (antibody, V domains shown)
VH: B1 VH
VL: B2 VL with D92N, W93H
notes: human IgG1
B23: mAb with Lc 5D03 (Lc6 variant) and Hc2 (antibody, V domains shown)
VH: B1 VH
VL: B2 VL with D92S, W93Y
notes: human IgG1
B24: mAb with Lc 2C09 (Lc6 variant) and Hc2 (antibody, V domains shown)
VH: B1 VH
VL: B2 VL with D92E
notes: human IgG1
B25: mAb with Lc 2A01 (Lc6 variant) and Hc2 (antibody, V domains shown)
VH: B1 VH
VL: B2 VL with D92S, W93H
notes: human IgG1
B26: mAb with Lc 5A02 (Lc6 variant) and Hc2 (antibody, V domains shown)
VH: B1 VH
VL: B2 VL with H91Q, W93Y
notes: human IgG1
B27: mAb with Lc 2H09 (Lc6 variant) and Hc2 (antibody, V domains shown)
VH: B1 VH
VL: B2 VL with H91P, D92I, W93D, G94A
notes: human IgG1
B28: mAb with Lc 2C04 (Lc6 variant) and Hc2 (antibody, V domains shown)
VH: B1 VH
VL: B2 VL with D92N, W93F
notes: human IgG1
B29: mAb with Lc 1G02 (Lc6 variant, Table 8) and Hc2 (antibody, V domains shown)
VH: B1 VH
VL: B2 VL with D92S, G94A
notes: human IgG1
B30: mAb with Lc 5H04 (Lc6 variant) and Hc2 (antibody, V domains shown)
VH: B1 VH
VL: B2 VL with W93Y, G94A
notes: human IgG1
B31: mAb with Lc 2E12 (Lc6 variant) and Hc2 (antibody, V domains shown)
VH: B1 VH
VL: B2 VL with G94S
notes: human IgG1
B32: mAb with Lc 1H02 (Lc6 variant) and Hc2 (antibody, V domains shown)
VH: B1 VH
VL: B2 VL with H91Q, W93I
notes: human IgG1
B33: mAb with Lc 2E04 (Lc6 variant) and Hc2 (antibody, V domains shown)
VH: B1 VH
VL: B2 VL with H91P, D92L, W93E, G94A
notes: human IgG1
B34: mAb with Lc 3A09 (Lc6 variant) and Hc2 (antibody, V domains shown)
VH: B1 VH
VL: B2 VL with W93L
notes: human IgG1
B35: mAb with Lc 3C06 (Lc6 variant) and Hc2 (antibody, V domains shown)
VH: B1 VH
VL: B2 VL with D92S, W93V
notes: human IgG1
B36: mAb with Lc 2A12 (Lc6 variant) and Hc2 (antibody, V domains shown)
VH: B1 VH
VL: B2 VL with W93P
notes: human IgG1
B37: mAb with Lc 3D01 (Lc6 variant) and Hc2 (antibody, V domains shown)
VH: B1 VH
VL: B2 VL with D92V, W93G
notes: human IgG1
B38: mAb with Lc 3A05 (Lc6 variant) and Hc2 (antibody, V domains shown)
VH: B1 VH
VL: B2 VL with W93N, G94S
notes: human IgG1
B39: mAb with Lc 2E06 (Lc6 variant) and Hc2 (antibody, V domains shown)
VH: B1 VH
VL: B2 VL with D92S, W93S
notes: human IgG1
B40: mAb with Lc 1B01 (Lc6 variant) and Hc2 (antibody, V domains shown)
VH: B1 VH
VL: B2 VL with D92S
notes: human IgG1
B41: mAb with Lc 2E01 (Lc6 variant, Table 8) and Hc2 (antibody, V domains shown)
VH: B1 VH
VL: B2 VL with D92N, W93E, G94A
notes: human IgG1
B42: mAb with Lc 2C01 (Lc6 variant) and Hc2 (antibody, V domains shown)
VH: B1 VH
VL: B2 VL with D92S, W93I
notes: human IgG1
B43: mAb with Lc 3A04 (Lc6 variant) and Hc2 (antibody, V domains shown)
VH: B1 VH
VL: B2 VL with H91P, D92L, W93D, G94S
notes: human IgG1

These binders were tested against T1, human IL-13 R130Q variant (R110Q of the mature chain) (human, UniProt P35225 35-146, Biotinylated on amines (NHS-LC-biotin, 4:1) in ELISA, panning and competition assays. The letters are unchanged.) (assay: single-point (10 nM) phage Fab ELISA on biotinylated IL-13 R130Q).
T1 construct: R130Q counts from Met 1 of the signal peptide, R110Q on the mature chain; Bought from Peprotech; also called IL-13 R110Q; b-R130Q
In the case of B1, the “Signal (% of Lc16Hc7)” value is reported as 128%.
For B2, the “Signal (% of Lc16Hc7)” value was 144%.
For B3, the “Signal (% of Lc16Hc7)” value was 136%.
B4 was tested, and the “Signal (% of Lc16Hc7)” value was 120%.
B5 was tested, and the “Signal (% of Lc16Hc7)” value was 122%.
For B6, the “Signal (% of Lc16Hc7)” value was 184%.
B7 was tested, and the “Signal (% of Lc16Hc7)” value was 100%.

Each binder was assayed against T1, human IL-13 R130Q variant (R110Q of the …) (assay: Ra2 binding inhibition ELISA, mAb in crude HEK293 supernatant, IL-13 binding to IL-13Ra2).
With B8 the “% Ra2 Binding Inhibition” value was 74.3%.
With B9 the “% Ra2 Binding Inhibition” value was 66.2%.
For B10, the “% Ra2 Binding Inhibition” value was 83.8%.
In the case of B11, the “% Ra2 Binding Inhibition” value is reported as 62.3%.
With B12 the “% Ra2 Binding Inhibition” value was 68.4%.
For B13, the “% Ra2 Binding Inhibition” value was 68.4%.
B14 was tested, and the “% Ra2 Binding Inhibition” value was 81.2%.
With B15 the “% Ra2 Binding Inhibition” value was 75.8%.
B16 was tested, and the “% Ra2 Binding Inhibition” value was 80%.
In the case of B17, the “% Ra2 Binding Inhibition” value is reported as 66.9%.
B18 was tested, and the “% Ra2 Binding Inhibition” value was 70.8%.
With B19 the “% Ra2 Binding Inhibition” value was 57.6%.
For B20, the “% Ra2 Binding Inhibition” value was 61.5%.
In the case of B21, the “% Ra2 Binding Inhibition” value is reported as 63%.
For B22, the “% Ra2 Binding Inhibition” value was 70.9%.
For B23, the “% Ra2 Binding Inhibition” value was 72.8%.
B24 was tested, and the “% Ra2 Binding Inhibition” value was 87.6%.
In the case of B25, the “% Ra2 Binding Inhibition” value is reported as 72.1%.
For B26, the “% Ra2 Binding Inhibition” value was 78.4%.
For B27, the “% Ra2 Binding Inhibition” value was 62.5%.
With B28 the “% Ra2 Binding Inhibition” value was 61.9%.
In the case of B29, the “% Ra2 Binding Inhibition” value is reported as 55.2%.
With B30 the “% Ra2 Binding Inhibition” value was 66.1%.
In the case of B31, the “% Ra2 Binding Inhibition” value is reported as 83%.
With B32 the “% Ra2 Binding Inhibition” value was 81.7%.
For B33, the “% Ra2 Binding Inhibition” value was 56.6%.
With B34 the “% Ra2 Binding Inhibition” value was 76.5%.
With B35 the “% Ra2 Binding Inhibition” value was 62.1%.
With B36 the “% Ra2 Binding Inhibition” value was 78.5%.
With B37 the “% Ra2 Binding Inhibition” value was 58.5%.
In the case of B38, the “% Ra2 Binding Inhibition” value is reported as 55.5%.
With B39 the “% Ra2 Binding Inhibition” value was 50.2%.
With B40 the “% Ra2 Binding Inhibition” value was 77.6%.
In the case of B41, the “% Ra2 Binding Inhibition” value is reported as 53.9%.
B42 was tested, and the “% Ra2 Binding Inhibition” value was 67.7%.
With B43 the “% Ra2 Binding Inhibition” value was 67%.
